Here are results for 94 variants from the supplement of paper PMC10567573.

The chains are these.
B1: USP39 (parent)
chain: FQGSMRIFTKKLPHPDLPAEEKEQ
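Also: lentivirally expressed fusions sorted by FACS into six bins by GFP to DsRed ratio, PSI derived from sequencing read proportions per bin multiplied by bin number.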

Variants of B1 are the subject of this series. Put plainly: protein stability index of a GFP-peptide fusion (GPS, HEK-293T) (PSI 1-6); higher = more stable. To be noted: c terminus: a fixed tail appended.
For FQGSMRIFTKKLPHPDLPAEEKEE, the protein stability index worked out at 1.81.

On to FQGSMRIFTKKLPHPDLPAEEKEY, for which the protein stability index is 1.62.

As for FQGSMRIFTKKLPHPDLPAEEKEK, the protein stability index was 2.37.

FQGSMRIFQKKLPHPDLPAEEKEQ: the protein stability index came to 2.19.

In the case of FQGSMRIFNKKLPHPDLPAEEKEQ, the protein stability index worked out at 2.65.

For the variant FQGSMRIFIKKLPHPDLPAEEKEQ, the protein stability index turned out to be 1.66.

On to FQGSMRIFGKKLPHPDLPAEEKEQ, for which the protein stability index came to 2.25.

As for FQGSMRIFLKKLPHPDLPAEEKEQ, the protein stability index turned out to be 1.92.

For FQGSMRIFAKKLPHPDLPAEEKEQ, the protein stability index is 2.04.

In the case of FQGSMRIFYKKLPHPDLPAEEKEQ, the protein stability index was 1.94.

Regarding FQGSMRIFPKKLPHPDLPAEEKEQ, the protein stability index was 3.14.

Regarding FQGSMRIFTVKLPHPDLPAEEKEQ, the protein stability index stood at 2.22.

Consider FQGSMRIFTFKLPHPDLPAEEKEQ, for which the protein stability index is 2.03.

On to FQGSMRIFTHKLPHPDLPAEEKEQ, for which the protein stability index stood at 2.37.

In the case of FQGSMRIFTMKLPHPDLPAEEKEQ, the protein stability index was 1.37.

FQGSMRIFTAKLPHPDLPAEEKEQ: the protein stability index came out at 2.08.

With FQGSMRIFTCKLPHPDLPAEEKEQ, the protein stability index worked out at 3.86.

Take FQGSMRIFTIKLPHPDLPAEEKEQ: the protein stability index amounted to 1.74.

For the variant FQGSMRIFTNKLPHPDLPAEEKEQ, the protein stability index was 2.81.

For the variant FQGSMRIFTTKLPHPDLPAEEKEQ, the protein stability index stood at 1.19.

Turning to FQGSMRTFTKKLPHPDLPAEEKEQ, the protein stability index turned out to be 3.01.

With FQGSMRNFTKKLPHPDLPAEEKEQ, the protein stability index was 3.65.

For the variant FQGSMRWFTKKLPHPDLPAEEKEQ, the protein stability index worked out at 3.05.

As to FQGSMRHFTKKLPHPDLPAEEKEQ, the protein stability index was found to be 2.97.

FQGSMRCFTKKLPHPDLPAEEKEQ: the protein stability index turned out to be 1.8.

Take FQGSMRLFTKKLPHPDLPAEEKEQ: the protein stability index was 1.84.

For the variant FQGSMRDFTKKLPHPDLPAEEKEQ, the protein stability index was found to be 3.85.

As to FQGSMRKFTKKLPHPDLPAEEKEQ, the protein stability index is 3.69.

As for FQGSMRPFTKKLPHPDLPAEEKEQ, the protein stability index came to 1.93.

With FQGSMREFTKKLPHPDLPAEEKEQ, the protein stability index worked out at 4.04.

Take FQGSMRFFTKKLPHPDLPAEEKEQ: the protein stability index worked out at 2.94.

With FQGSMRRFTKKLPHPDLPAEEKEQ, the protein stability index was 4.38.

Consider FQGSMRIFTKKLPHPDLPAEDKEQ, for which the protein stability index is 1.73.

On to FQGSMRIFTKKLPHPDLPAERKEQ, for which the protein stability index stood at 1.96.

Consider FQGSMRIFTKKLPHPDLPAEWKEQ, for which the protein stability index is 1.32.

As for FQGSMRIFTKKLPHPDLPAEFKEQ, the protein stability index was found to be 2.29.

For FQGSMRIFTKKLPHPDLPAEQKEQ, the protein stability index was 2.08.

For FQGSMRIFTKKLPHPDLPAELKEQ, the protein stability index was 2.04.

For FQGSMRIFTKKLPHPDLPAEGKEQ, the protein stability index was 1.88.

Regarding FQGSMRIFTKKLPHPDLPAEIKEQ, the protein stability index stood at 2.45.

FQGSMRIFTKKLPHPDLPAEPKEQ: the protein stability index came out at 2.02.

Regarding FQGSMRIFTKKLPHPDLPAETKEQ, the protein stability index amounted to 2.01.

Consider FQGSMRIFTKKLPHPDLPAEAKEQ, for which the protein stability index is 1.81.

As to FQGSMRIFTKKLPHPDLPAEEKAQ, the protein stability index was determined as 1.65.

FQGSMRIFTKKLPHPDLPAEEKNQ: the protein stability index amounted to 2.1.

Take FQGSMRIFTKKLPHPDLPAEEKWQ: the protein stability index was found to be 2.19.

In the case of FQGSMRIFTKKLPHPDLPAEEKIQ, the protein stability index is 1.57.

Take FQGSMRIFTKKLPHPDLPAEEKYQ: the protein stability index is 1.66.

For FQGSMRIFTKKLPHPDLPAEEKCQ, the protein stability index was determined as 1.79.

Consider FQGSMRIFTKKLPHPDLPAEEKGQ, for which the protein stability index is 2.21.

With FQGSMRIFTKKLPHPDLPAEEKTQ, the protein stability index came to 1.61.

On to FQGSMRIFTKKLPHPDLPAEEKVQ, for which the protein stability index turned out to be 1.47.

Take FQGSMRIFTKKLYHPDLPAEEKEQ: the protein stability index came to 1.62.

Regarding FQGSMRIFTKKLIHPDLPAEEKEQ, the protein stability index is 1.86.

With FQGSMRIFTKKLMHPDLPAEEKEQ, the protein stability index worked out at 2.12.

On to FQGSMRIFTKKLHHPDLPAEEKEQ, for which the protein stability index came to 2.4.

For the variant FQGSMRIFTKKLFHPDLPAEEKEQ, the protein stability index is 1.99.

Consider FQGSMRIFTKKLDHPDLPAEEKEQ, for which the protein stability index is 1.72.

As to FQGSMRIFTKKLPHPDLPYEEKEQ, the protein stability index stood at 1.34.

As to FQGSMRIFTKKLPHPDLPCEEKEQ, the protein stability index is 1.96.

Take FQGSMRIFTKKLPHPDLPTEEKEQ: the protein stability index came out at 1.68.

In the case of FQGSMRIFTKKLPHPDLPIEEKEQ, the protein stability index was 1.53.

With FQGSMRIFTKKLPHPDLPREEKEQ, the protein stability index is 1.64.

With FQGSMRIFTKKLPHPDLPWEEKEQ, the protein stability index turned out to be 1.58.

Regarding FQGSMRIFTKKLPHPDLPHEEKEQ, the protein stability index amounted to 2.25.

For FQGSMRIFTKKLPHPDLPKEEKEQ, the protein stability index was 1.73.

Regarding FQGSMRIFTKKLPHPDLPFEEKEQ, the protein stability index turned out to be 1.81.

For the variant FQGSMRIVTKKLPHPDLPAEEKEQ, the protein stability index turned out to be 3.04.

On to FQGSMRIPTKKLPHPDLPAEEKEQ, for which the protein stability index was 3.42.

In the case of FQGSMRICTKKLPHPDLPAEEKEQ, the protein stability index was determined as 3.05.

Consider FQGSMRIQTKKLPHPDLPAEEKEQ, for which the protein stability index is 3.77.

In the case of FQGSMRIRTKKLPHPDLPAEEKEQ, the protein stability index turned out to be 3.59.

Consider FQGSMRITTKKLPHPDLPAEEKEQ, for which the protein stability index worked out at 3.89.

Consider FQGSMRIFTKKLPHPILPAEEKEQ, for which the protein stability index worked out at 2.13.

As to FQGSMRIFTKKLPHPWLPAEEKEQ, the protein stability index came out at 2.67.

FQGSMRIFTKKLPHPFLPAEEKEQ: the protein stability index stood at 2.16.

Regarding FQGSMRIFTKKLPHPNLPAEEKEQ, the protein stability index is 2.37.

FQGSMRIFTKKLPHPCLPAEEKEQ: the protein stability index turned out to be 1.54.

As to FQGSMRIFTKKLPHPLLPAEEKEQ, the protein stability index was found to be 2.3.

On to FQGSMRIFTKKLPHPALPAEEKEQ, for which the protein stability index was 1.7.

Regarding FQGSMRIFTKKLPHPHLPAEEKEQ, the protein stability index stood at 2.12.

Take FQGSMVIFTKKLPHPDLPAEEKEQ: the protein stability index turned out to be 1.82.

Consider FQGSMSIFTKKLPHPDLPAEEKEQ, for which the protein stability index was 3.04.

Turning to FQGSMDIFTKKLPHPDLPAEEKEQ, the protein stability index came out at 1.84.

As to FQGSMPIFTKKLPHPDLPAEEKEQ, the protein stability index was determined as 2.37.

Turning to FQGSMFIFTKKLPHPDLPAEEKEQ, the protein stability index is 1.76.

As for FQGSMKIFTKKLPHPDLPAEEKEQ, the protein stability index was determined as 1.89.

Consider FQGSMRIFTKKLPHPDLRAEEKEQ, for which the protein stability index turned out to be 1.88.

With FQGSMRIFTKKLPHPDLSAEEKEQ, the protein stability index was 2.21.

As for FQGSMRIFTKKLPHPDLYAEEKEQ, the protein stability index came to 1.74.

As for FQGSMRIFTKKLPHPDLIAEEKEQ, the protein stability index amounted to 1.7.

Consider FQGSMRIFTKKLPHPDLNAEEKEQ, for which the protein stability index turned out to be 1.98.

On to FQGSMRIFTKKLPHPDLVAEEKEQ, for which the protein stability index turned out to be 1.71.

On to FQGSMRIFTKKLPHPDLLAEEKEQ, for which the protein stability index stood at 1.75.
